A value given as a limit tells only on which side of the number the result lay.

Assay [1] has as its target recombinant human IL-17 (Peprotech #200-17) (human) (UniProt Q16552). Nature of the assay: ELISA, coated IL-17 subtype, antibody 10 µg/ml, OD 405/492 nm.
For assay [2], the target named is T1, human IL-17F (human, UniProt Q96PD4 31-163, limits assumed).
T1 sequence (looked up): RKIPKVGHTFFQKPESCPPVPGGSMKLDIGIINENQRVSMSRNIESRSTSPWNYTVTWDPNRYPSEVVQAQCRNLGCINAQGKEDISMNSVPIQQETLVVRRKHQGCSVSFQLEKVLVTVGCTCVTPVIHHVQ
The assay is described as above.

The target in assay [3] is T2, human IL-17E (human, UniProt Q9H293 33-177, limits assumed).
T2 sequence (looked up): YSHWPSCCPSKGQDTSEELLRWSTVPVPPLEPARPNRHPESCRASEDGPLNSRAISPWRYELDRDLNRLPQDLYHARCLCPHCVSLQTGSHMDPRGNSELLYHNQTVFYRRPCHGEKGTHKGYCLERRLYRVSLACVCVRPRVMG
The description is as above.

Assay [4] addresses T3, human IL-17C (human, UniProt Q9P0M4 19-197, limits assumed).
T3 sequence (looked up): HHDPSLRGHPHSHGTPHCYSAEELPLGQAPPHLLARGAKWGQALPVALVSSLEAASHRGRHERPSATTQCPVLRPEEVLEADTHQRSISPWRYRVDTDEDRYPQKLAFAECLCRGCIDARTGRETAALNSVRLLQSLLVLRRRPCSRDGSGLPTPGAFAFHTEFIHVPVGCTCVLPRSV
The assay is described as above.

In assay [5] the target is T4, human IL-17D (human, UniProt Q8TAD2 18-202, limits assumed).
T4 sequence (looked up): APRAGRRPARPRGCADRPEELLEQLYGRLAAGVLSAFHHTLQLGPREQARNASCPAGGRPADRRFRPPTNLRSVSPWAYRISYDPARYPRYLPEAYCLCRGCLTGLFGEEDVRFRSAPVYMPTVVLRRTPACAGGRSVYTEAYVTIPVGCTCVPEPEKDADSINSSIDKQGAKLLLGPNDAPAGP
The assay is described as above.

Assay [6] has as its target T5, human IL-17B (human, UniProt Q9UHF5 21-180, limits assumed).
T5 sequence (looked up): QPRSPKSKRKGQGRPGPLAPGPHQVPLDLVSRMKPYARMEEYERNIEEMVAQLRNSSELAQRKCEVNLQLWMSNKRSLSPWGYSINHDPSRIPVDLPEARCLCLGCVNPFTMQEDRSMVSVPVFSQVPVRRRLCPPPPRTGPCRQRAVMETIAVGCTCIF
The description is as above.

Assay [7] has as its target recombinant human IL-17 (Peprotech #200-17) (human) (UniProt Q16552). Briefly: cell-based or functional assay.
Assay [8] concerns the target cynomolgus IL-17A (cynomolgus monkey). Nature of the assay: cell-based or functional assay.
Assay [9] deals with T1, human IL-17F. Nature of the assay: ELISA on immobilized IL-17 variant.
For assay [10], the target named is T3, human IL-17C. Nature of the assay: ELISA on immobilized IL-17 variant.
Assay [11] deals with T6, cynomolgus IL-17A (cynomolgus monkey, UniProt A0A2K5TTB0 24-155).
T6 sequence: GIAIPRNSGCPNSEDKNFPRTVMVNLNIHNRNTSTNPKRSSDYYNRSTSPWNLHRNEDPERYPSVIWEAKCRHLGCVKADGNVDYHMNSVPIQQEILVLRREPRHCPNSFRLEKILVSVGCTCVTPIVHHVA
Briefly: cell-based or functional assay.

The target of assay [12] is T7, recombinant human IL-17 (Peprotech #200-17) (human, UniProt Q16552 20-155).
T7 construct: Bought recombinant protein; Coated on the plate in the ELISA, soluble antigen in Biacore and in the cell assays; also called human IL-17A; IL-17A
T7 sequence (looked up): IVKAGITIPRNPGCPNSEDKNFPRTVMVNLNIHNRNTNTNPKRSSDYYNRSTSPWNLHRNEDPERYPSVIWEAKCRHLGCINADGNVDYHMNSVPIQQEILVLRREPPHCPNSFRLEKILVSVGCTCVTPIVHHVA
Briefly: ELISA, coated IL-17 subtype, antibody 10 µg/ml, OD 405/492 nm.

Assay [13] has as its target T7, recombinant human IL-17 (Peprotech …). Nature of the assay: cell-based or functional assay.
The target is the same in assay [14]. Nature of the assay: cell-based or functional assay. This is another data set of the same source.

With NVP-AIN-497 (WO 2006013107) (antibody), the Binding (IL-17A binding set as 100) (% (IL-17A binding set as 100)) in [1] worked out at 100; in assay [2] it was 62; in assay [3] it was 3; in [4] it was 2; in assay [5], 0; in assay [6], 2. Besides, the results for the IL-6 Neutralization IC50 (nM) (using 100 ng/ml IL-17A) in assay [7] and in [8] were 5 nM and over 10 nM, respectively. Further, the IL-8 Neutralization IC50 (nM) (using 100 ng/ml IL-17A) in assay [7] was 4.2 nM; in assay [8], over 10 nM.
Take MAB 317 of R&D Systems (antibody): the Binding (IL-17A binding set as 100) (% (IL-17A binding set as 100)) in assay [1] was 100; in assay [2], 0; in assay [3], 0; in [4] it was 0; in assay [5] it was 0; in assay [6], 0. The IL-6 Neutralization IC50 in [7] is 5.5 nM. Moreover, the IL-8 Neutralization IC50 in assay [7] was 5.5 nM.
“Mab 16-7178-85 of eBioscience (antibody)”: the Binding (IL-17A binding set as 100) (% (IL-17A binding set as 100)) in assay [1] was 100; in [2], 5; in assay [3] it was 5; in assay [4], 97; in assay [5] it was 6; in assay [6], 7.

B1: Mab 106 (antibody, V domains shown)
VH: EVQLVESGGGLVQPGGSLRLSCAASGFTFSDYTMLWVRQAPGKGLEWVAIIKSGGSYSYYPDSVKGRFTISRDNAKNSLYLQMNSLRAEDTAVYYCARDGDYGSSYGAMDYWGQGTLVTVSS
VL: DIQMTQSPSSLSASVGDRVTITCRASQDINSYLSWFQQKPGKAPKSLIYRANRLVDGVPSRFSGSGSGQDYSLTISSLQPEDFATYYCLQYDAFPPYTFGQGTKLEIK
notes: Humanized version of 3C1; Only the variable domains are tied to it; also called Mab K106
In the case of B1, the binding result in [9] and in [10] was “no binding (tested: S/N ratio lower than 7:1)” in each case. Also, the “IL-6 Neutralization IC50 (nM) (using 100 ng/ml IL-17A)” value in [11] was found to be 0.7 nM; in assay [14], 2.1 nM. Also, the “IL-8 Neutralization IC50 (nM) (using 100 ng/ml IL-17A)” value in [11] came out at 0.6 nM; in assay [14], 1.6 nM. The “Binding (IL-17A binding set as 100)” value in [2] was 0 % (IL-17A binding set as 100); in [3], 1 % (IL-17A binding set as 100); in [4], 0 % (IL-17A binding set as 100); in assay [5], 0 % (IL-17A binding set as 100); in [6] it was 0 % (IL-17A binding set as 100); in [12], 100 % (IL-17A binding set as 100). The “IL-6 Neutralization IC50” value in [13] turned out to be 1 nM. Besides, the “IL-8 Neutralization IC50” value in [13] stood at 1 nM.

The values are drawn from patent US20100080812A1 (ROCHE PALO ALTO, published 2010).
